Results as given in publication doi:10.1101/2025.07.27.667015.

Tests used:
[1] = target: Methionine γ-lyase from Yarrowia lipolytica (yMGL) (Yarrowia lipolytica); assay: SEC + other: dynamic light scattering
[2] = target: Methionine γ-lyase from Yarrowia lipolytica (yMGL) (Yarrowia lipolytica); assay: crystal structure
[3] = target: yMGL-ΔCTD (yMGL with the C-terminal residues 253-380 deleted) (Yarrowia lipolytica); assay: SEC + other: dynamic light scattering

Row | stoichiometry N [1] | stoichiometry N [2] | stoichiometry N [3] | Substance
1 | 4 | 2 | – | Methionine γ-lyase from Yarrowia lipolytica (yMGL) (enzyme)
2 | – | – | 6 | yMGL-ΔCTD (yMGL with the C-terminal residues 253-380 deleted) (domain or fragment)
